According to US6696409 (PRINCE OF WALES MEDICAL RESEARCH INSTITUTE LIMITED POWMR, dated 2004):

B1: Ac[A24,26,27,30,31,L28]NPY24-36 (peptide)
peptide: Ac-ARAALNAATRQRY-NH2
B2: Ac[L28,A31]NPY24-36 (peptide)
peptide: Ac-LRHYLNLATRQRY-NH2
B3: Ac[L28,A30,L31]NPY24-36 (peptide)
peptide: Ac-LRHYLNALTRQRY-NH2
B4: Ac[A24,A27,L28,L31]NPY24-36 (peptide)
peptide: Ac-ARHALNLLTRQRY-NH2
notes: also called Ac[Ala24, Ala27, Leu28, Leu31]NPY(24-36)
B5: Ac[A24,L28,L31]NPY24-36 (peptide)
peptide: Ac-ARHYLNLLTRQRY-NH2
B6: Ac[A25,L28,L31]NPY24-36 (peptide)
peptide: Ac-LAHYLNLLTRQRY-NH2
B7: Ac[A25,R28,L31]NPY24-36 (peptide)
peptide: Ac-LAHYRNLLTRQRY-NH2
B8: Ac[A26,L28,L31]NPY24-36 (peptide)
peptide: Ac-LRAYLNLLTRQRY-NH2
B9: Ac[A28,L31]NPY24-36 (peptide)
peptide: Ac-LRHYANLLTRQRY-NH2
B10: Ac[A27,L28,L31]NPY24-36 (peptide)
peptide: Ac-LRHALNLLTRQRY-NH2
B11: Ac[L28,A29,L31]NPY24-36 (peptide)
peptide: Ac-LRHYLALLTRQRY-NH2
B12: Ac[L28,L31,A32]NPY24-36 (peptide)
peptide: Ac-LRHYLNLLARQRY-NH2
B13: Ac[A26,27,L28,31]NPY24-36 (peptide)
peptide: Ac-LRAALNLLTRQRY-NH2
B14: Ac[L28,L31]NPY24-36 (peptide)
peptide: Ac-LRHYLNLLTRQRY-NH2
B15: AcNPY24-36 (peptide, UniProt P01303 52-64, looked up)
peptide: Ac-LRHYINLITRQRY-NH2
B16: Neuropeptide Y (ligand)
peptide: not shown

Each binder was assayed against T1, human neuropeptide Y Y2 receptor on SMS-MSN cells (human, UniProt P49146 1-381) (assay: competition with 30 pM [125I]NPY on SMS-MSN cells (human Y2), filtration).
T1 construct: whole, on cells; also called NPY Y2 receptor; SMS-MSN (Y2)
T1 sequence (looked up): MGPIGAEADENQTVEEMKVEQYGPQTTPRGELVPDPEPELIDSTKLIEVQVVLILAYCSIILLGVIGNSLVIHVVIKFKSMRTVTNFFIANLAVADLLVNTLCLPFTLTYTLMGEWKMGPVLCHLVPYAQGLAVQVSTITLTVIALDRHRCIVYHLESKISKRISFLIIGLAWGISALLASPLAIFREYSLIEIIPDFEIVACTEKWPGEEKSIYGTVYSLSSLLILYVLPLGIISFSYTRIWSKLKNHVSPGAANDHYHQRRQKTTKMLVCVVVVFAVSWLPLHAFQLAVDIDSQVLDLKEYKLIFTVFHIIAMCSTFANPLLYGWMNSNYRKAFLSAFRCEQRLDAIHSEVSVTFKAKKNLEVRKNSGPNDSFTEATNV

| Binder | IC50 |
| --- | --- |
| B1 | 3.16 nM |
| B2 | 0.06 nM |
| B3 | 6.31 nM |
| B4 | 0.03 nM |
| B5 | 19.2 nM |
| B6 | 2 nM |
| B7 | 0.1 nM |
| B8 | 63.1 nM |
| B9 | 12.6 nM |
| B10 | 0.13 nM |
| B11 | 0.05 nM |
| B12 | 2.51 nM |

The binders below were run against Y2-like receptors in anaesthetised rats (rat) (assay: cell-based or functional assay).

| Binder | EC50 of the change in pulse interval (PI %), vagal stimulation in anaesthetised rats |
| --- | --- |
| B1 | 0.56 nmol |
| B13 | 1 nmol |
| B14 | 3.16 nmol |
| B2 | 0.78 nmol |
| B3 | 0.39 nmol |
| B4 | 0.89 nmol |
| B5 | 0.46 nmol |
| B6 | 1.58 nmol |
| B7 | 1.95 nmol |
| B8 | 1.26 nmol |
| B9 | 2.75 nmol |
| B10 | 0.52 nmol |
| B11 | 1.48 nmol |
| B12 | 6.46 nmol |

Each binder was assayed against Y1 receptors in anaesthetised rats (rat) (assay: cell-based or functional assay).

| Binder | Increase in BP (rel to NPY), anaesthetised rats |
| --- | --- |
| B1 | 0 relative to NPY |
| B13 | 0 relative to NPY |
| B14 | 0 relative to NPY |
| B2 | 0 relative to NPY |
| B3 | 0 relative to NPY |
| B4 | 0 relative to NPY |
| B5 | 0 relative to NPY |
| B6 | 0 relative to NPY |
| B7 | 0 relative to NPY |
| B8 | 0 relative to NPY |
| B9 | 0 relative to NPY |
| B10 | 0 relative to NPY |
| B11 | 0 relative to NPY |
| B12 | 0 relative to NPY |
| B15 | 0 relative to NPY |
| B16 | 1 relative to NPY |

What follows are binders tested against T2, human neuropeptide Y Y1 receptor on SK-N-MC cells (human, UniProt P25929 1-384) (assay: competition with 30 pM [125I]NPY on SK-N-MC cells (human Y1), filtration).
T2 construct: whole, on cells; also called NPY Y1 receptor; SK-N-MC (Y1)
T2 sequence (looked up): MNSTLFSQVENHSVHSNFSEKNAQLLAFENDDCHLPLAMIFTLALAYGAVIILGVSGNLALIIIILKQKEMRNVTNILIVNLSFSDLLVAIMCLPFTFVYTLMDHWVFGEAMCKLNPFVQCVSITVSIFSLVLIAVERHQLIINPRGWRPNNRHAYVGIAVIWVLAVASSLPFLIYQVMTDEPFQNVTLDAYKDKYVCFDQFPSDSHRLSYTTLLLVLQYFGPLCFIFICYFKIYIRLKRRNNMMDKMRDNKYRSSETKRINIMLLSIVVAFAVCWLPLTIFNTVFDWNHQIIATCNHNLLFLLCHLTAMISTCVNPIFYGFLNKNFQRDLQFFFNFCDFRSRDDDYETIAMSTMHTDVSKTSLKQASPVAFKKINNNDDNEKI

| Binder | IC50 |
| --- | --- |
| B7 | 692 nM |
